Test: soluble on expression in E. coli; label from the status in PepcDB or PDB records

Sequence: MATASQRNFLAVPDWLDAAILISDEQTSDIFDLAWDMDDFWVFGYGSLMWNPGFAFEERQQARLHGYRRSLCISSNFYRGTEEKPGLVLGLERGGSCLGVAFRVRGKDHDPVMAYLRERELVTNVYKERVVSIALANGRRGSAVTYVADPAHEQYIGGLGVAESAVIIAAATGRSGPNTDYLFNTVQHLQEMGIRDSLLESIAASVGTLSAQSAVVSLPLEHHHHHH
- soluble on expression in E. coli: not soluble

Sequence: MRRRGKGGGSVFYHEGKGKWVAQLTWIDPATGRKVKREKHCETRKEAERALADMVVAQAKGLLTDPSRLTTRDFALDYLKRLEREGLRPNSIRLAQEELAHALPSLKDPKAHDPLGRMRLQEVKPVHVRAAVDRVAEAGYAPRTVGRVLMRLKALFREALRLELVARNPAEAVRLRLPKGEKTARALEPQEVARLLETAEASRSKDMALLLRLMLETGLRRGEALALQWRDIDLEAGELTVWRSWTKARGKGAFSEPKTPTAKRKVPLPRGLLLRLKARREELLERLTPKEVDGLFLVGGVKPVDPDAFNHYLRRLAERAGLGRVRVHDLRHTWATLALSRGVPLEVVSERLGHASPTITLNVYRHLLEEERRGWVLDLEELLYPAPRAQA
- soluble on expression in E. coli: soluble

Sequence: MPKIPITLITGFLGSGKTSFLSEYLNQTDHQGVALIINEIGQAALDQRILSVQYCGEKMLYLNAGCVCCNKRLDLVESLKATLNNYEWHGEILRRIIIETTGLANPAPILWTILSDTFLGVHFEIQSVVACVDALNAREHLTNNEAKEQIVFADSVLLTKTDLQNDSAALTKLKERIQALNPSAEIFDKRAIDYESLFSRKNRARNFMPRMPKDSHSQGFETLSINFEGTMEWSAFGIWLSLLLHQYGTQILRIKGIIDIGSGFLVSINGVMHVIYPPKHILKDQNGSNLVFIMRHLEREKILNSLKGFKDFLGIKGFETQLEHHHHHH
- soluble on expression in E. coli: soluble

Sequence: MLTQYRQAQEDILRGRVKVRVVGQDKGGGVVMGEGVEIAPGARIEGPVLIGGACHIATGAVVGPFTVLGPYTRVEEGATVRRSVLWDNVYTGEGANVRGAVVCSRASLQRRVQVYEGAVIGDGTQVDAGAEVRPEVKVWPEKTLEHHHHHH
- soluble on expression in E. coli: not soluble

Sequence: MTDALEQSVLALEGTVSVLKDSVESLKCANEPSTNLASTMLQTKRVFRLVPEYDVERSKLDLIEEVEPLVRTLGDKLRKSMGRMQRELDTLQQTYELNDLRLKKNISMDDDDALNSPDMGQEYEGRDADDVVMMASSTNEELEELKKLKEKKKQLENKLEILKQK
- soluble on expression in E. coli: soluble

Sequence: MMMDILMYLFETYVHSDADLQVDQDQLEDELLRAGFHQKDIYKALHWLEELAALQQTDAQTAIAKSAPTSMRIYAPEEIERLDLESRGFLLFLEHINVLTPETREMVIDRVMGLETDEFELDDLKWIILMVLFNVPGNENAYTVMEELLYSKEQGILH
- soluble on expression in E. coli: not soluble

Sequence: VQLQQSGTELMKPGRSLKISCKTTGYIFSNYWIEWVKQRPGHGLEWIGKILPGGGSNTYNDKFKGKATFTADTSSNIAYMQLSSLTSEDSAVYYCARGEDYYAYWYVLDYWGQGTTVTVSSGGGGSDIELTQSPLSLPVSLGDQASISCRSSQSLVHSNGNTSLHWYLKKPGQSPKLLIYKVSTRFSGVPDRFSGSGSGTDFTLKISRVEAEDLGVYFCSQSTHVPFTFGSGTKLELK
- soluble on expression in E. coli: soluble

Sequence: MSLNYTELEENIKKNNIENVYIMCGFNEKLMKESINKILKKSISQDFESLNYSVFDGNEVEFEDILNACETVPFMSEKRMVVVYRAGFLNDNSSGSNKNSDKLIKDIEKYVPNVPKHCILVMYYVFDNTREKPSYRVKKFDKKVCVVEFSKLRGMQFQKKVKDVFAEKGKQIGKTELNYFCSRVENNMDIVYNEIEKLCCYTLEKEITKESIDNLLQPNETDDIFNLVDYISQSKPEMAITVLNEIMYKGVKANSILYMVERQFKLMLSIKIGIENKQSKEALVKELKLNPYVCDKMINECKRFTMKKILKSLDICLRTEKELKSVSGDPKFKMEVLIINLAIEGHHHHHH
- soluble on expression in E. coli: soluble

Sequence: MSLYPGQFAKTRPDHPAFIMASTGETVSYAELEARSNRLAHLLRNHGLQRLDHYSIFMENNNRYIEACAAGERSGYYYTCVNSYLTPAELAYILTNSESRALITSKAKLDVAREALKDCPNVTLCVVVDGDGESERIVGLAEATKNLPDTPIADESLGTAMLYSSGTTGRPKGILRPLPEQPPSEPLPLFHFLNMLWKYRDGMIYLSPAPLYHSAPQAAVGLTIRDGGTVIIMEHFDPEQYLALIGKHKVTHSQLVPTMFSRMLKLPEEARKTYDLSTLEVAIHAAAPCPPQVKEQMIEWWGPIIHEYYGATEGLGFTACNSAEWLAHRGTVGKVMFGDLHILDDGMKPCPKGTPGQIWFKTATPFEYFNDPKKTQEARSEDGSMSTVGDVGYVDDDGYLHLTDRATFMIISGGVNIYPQECENLLITHPKVADAAVFGVPNEDLGEEVKAVVQPMPGVAAGADLAAELIAFCAQSLSRQKVPRSIDFMDELPRLPTGKLYKRLLRDRYWGNKNSREGHHHHHH
- soluble on expression in E. coli: soluble

Sequence: MSLKASLLQEQSLRLAMTQELRQAITMLQYNVQELSEFLYEQSLENPLIELGGFEREKKKSSNNSKSTSKQVENQMEIYSVDSTTIQQHLLNQIQYYKIEEEERKVASFIIMNMDGNGYLQETNEELANLLSAPLHVVDRSVELVQSLEPAGVGARNIQECLTLQLKRLQRRNGLAEEVVEDHFAYFVKKDWRKLVQVLKCSNEELQDAVNCITSLQPKPGLAFSSDKPLYIVPDMAVKKDGDRLVLQMNERNMPRIEIHSEYSALLNNSESEVASYVSEKYQHVQWIMRSLKQRKQTLLQVMTIIMEKQRDFFWKGPEYLKPLALKEVAEELSVHESTISRATRNKYVQTPHGLFEMKSFFSNAVSTTEDEAVSTKRVKQFIQTLVEAENKKKPLSDQKISKLLEEEHEIVISRRTVAKYREQMHIPASSLRKTIGEGHHHHHH
- soluble on expression in E. coli: not soluble

Sequence: MGSDKIHHHHHHMERVALACWDDFEAQLKKLDEEANAVEDARGDVRASGYLFRGHGDADYPLQTSLERFFARPLSLADYYRLALVAKPRLEAFTGRRWELPSQEAYAAWLEGAAGSTLDDYPAYDYLAYLRHHGFPSPLLDWTQSPYVAAFFAFRYPLPGAKAVAVYAYRDAPDAKTASSGAARIHRQGPYVSSDKRHFLQQSQYTFCTRTDDAGVVGYIGHEQAFRDVSPADRIRKFLIPLSARRQALMQLNRMNINAFSLFGSEDSLVETIAISDIYLRGGDL
- soluble on expression in E. coli: not soluble

Sequence: MGSDKIHHHHHHMYLLDSTIAKKIVSRTMKIIGHNINVMNGQGVILGSGDPKRIGSTHEGALLAIAQNRNVELSDEVASGLHGVKPGINLPLHYQGQIIGVIGITGAPDELAHYGELLKMTAEMIVEQANQQDKLQWENRQREEFILQLIKANTDDEQLQRWAKQLDIDINLPRVAAIIEISEKLSAPIHKTASLINAAASESSVDERNPRVSETLKQVLHLLQNPDRGNLIAMTSMSQLVILKPAFLDGKQWDPELENQRIDKLLQRLPAQMGLHFKIALGHFFPEKGGIARSYQTAQETLNLGKQLNPEGTKYLFEDYSLQVLLSGLKHDWRGQALASPYQQLTQADKNGQLRKTLAAYITHFGDAQQCANALFIHRNTLRYRLDKIQQLTQTDIQSLHGLLSLYLGQLLDTSANPR
- soluble on expression in E. coli: not soluble

Sequence: MGSDKIHHHHHHMQKTPALLSDIGNNEDASVYQISPDLALVQTLDFITPIVDSAYHFGAIAAANALSDVFAMGAEVINALNIVGFDTCNHDLNILKELLEGANDKVKECNALVVGGHTIESTELFFGLSVTGKVHPSKFIANNTSKIGDCIILTKPLGTGILSTALKAQMLNQKHLDIMLKNMIELNYKASQIALKFHPSAMSDVTGFGLLGHLKEMLNKNISFEIFESELPFLDGVKEYFNMGLIPAGAYKNLEFIKELTPDLNEEKLLLCDPQTSGGLLISISEKDSLECLKKLEDENIQAKIIAKVVNKQENDIIIS
- soluble on expression in E. coli: not soluble

Sequence: GSHMYEYPVFSHVQAGMFSPELRTFTKGDAERWVSTTKKASDSAFWLEVEGNSMTTPTGSKTSFPDGMLILVDPEQAVEPGDFCIARLGGDEFTFKKLIRDSGQVFLQPLNPQYPMIPCNESCSVVGKVIASQ
- soluble on expression in E. coli: soluble

Sequence: GEKTYVKRLVKILLLGAGESGKSTFLKQMRIIHGQDFDQRAREEFRPTIYSNVIKGMRVLVDAREKLHIPWGDNKNQLHGDKLMAFDTRAPMAAQGMVETRVFLQYLPAIRALWEDSGIQNAYDRRREFQLGESVKYFLDNLDKLGVPDYIPSQQDILLARRPTKGIHEYDFEIKNVPFKMVDVGGLRSERKRWFECFDSVTSILFLVSSSEFDQVLMEDRQTNRLTESLNIFETIVNNRVFSNVSIILFLNKTDLLEEKVQVVSIKDYFLEFEGDPHCLRDVQKFLVECFRGKRRDQQQRPLYHHFTTAINTENIRLVFRDVKDTILHDNLKQLMLQ
- soluble on expression in E. coli: soluble

Sequence: MGFFDSGIGGMTVLYEAIKVLPYEDYIFYADTLNVPYGEKSKGKVKEYIFNAAEFLASQNIKALVIACNTATSIAIEDLRRNFDFPIIGIEPAVKPAINKCTEERKRVLVVATNLTLKEEKFHNLVKEIDHHDLVDCLALPGLVEFAENFDFSEDKIIKYLKNELSSFDLKQYGTIVLGCTHFPFFKNSFEKLFGIKVDMISGSVGTAKQLKKVLADRNQLGKGSGSITFFNSGHKIVDQEVISKYKRLFEILDETQRSHVGH
- soluble on expression in E. coli: not soluble

Sequence: MAHHHHHHMPTSSWRAEHLLIKHSGSRNPVSRRTGQPTTISYEEAVTELQKWCQSINDGKVTFEEAARQRSDCSSYARGGDLGVFGPGEMMKPFEDATKSLEVGQVSGIVVTDSGVHIIKRIA
- soluble on expression in E. coli: soluble

Sequence: MSDEISILIQDRKTGQRRNLTLNINITGNIEDLTKDVEKLTEIPSDELEVVFCGKKLSKSTIMRDLSLTPATQIMLLRPKFNSHNENGATTAKITTDSSILGSFYVWCKNCDDVKRGKLRVYCQKCSSTSVLVKSEPQNWSDVLKSKRIPAVCEECCTPGLFAEFKFKCLACNDPAAALTHVRGNWQMTECCVCDGKEKVIFDLGCNHITCQFCFRDYLLSQLERFGFVNQPPHGFTIFCPYPGCNRVVQDVHHFHIMGQTSYSEYQRKATERLIAVDDKGVTCPNVSCGQSFFWEPYDDDGRSQCPDCFFSFCRKCFERNCVCQSEDDLTRTTIDATTRRCPKCHVATERNGGCAHIHCTSCGMDWCFKCKTEWKEECQWDHWFN
- soluble on expression in E. coli: not soluble

Sequence: SQGRKPSSKLISFQRKLANETEIQKLNLSQSDYVVRMERVRYADKVPLVYEVASIPENLIKGFEQSEVTEHFFKTLTENGYEIGKSQQTIYARNASERVASHLEVNAGHAILALTQVSYFTDGKPFEYVHGQYVGDRFE
- soluble on expression in E. coli: not soluble

Sequence: MAHHHHHHMYTRDVSDRISGISAADLAQRLVEVSARNTARDGALSPSVCQRPLPHCVSALLWDAKCAGAAPPRTALLRGDVVDMTSSVSDATLSCVALSDDVRFRFARSRHRRLTGILSSTAAPLPPRMCRVDVTHFYWMDECAPGLTYDDQSVLSTVLQKRIVQWAVSAFARNPLLRNISLQALEAVFPALLAFSPREREELLKHAAELLGQGTLIWYGQAMIKQFHESAASLALSLLTSSEERCSAALLFALATAQEVMGARRDDAAQALRFLLEVYGVRGVALSPALTTAALLVSRATVPLCTRRCLGAGSRQHHLLQPYLFPLSCAHVETLPWIPHNTHTSSPEHLRELVRRAREAAAAVLATAAPCTATTAQKRHAHEDDVNAFFSANHALEIHRDTLVTHASGDVPSSLPALKAADSGAAARSRLLEAAPKWWEQEAKASNSDTAREETELKLHVKAAAAELREPHGSDHALLAVIHRTRKRQRNREQPTAQTVEAALEGAAIRLKRRAFLQLVDIFALNAHTEDRDGKARQYLEQHHVAEAQIRDFTTLLSSTRKT
- soluble on expression in E. coli: not soluble

Sequence: ITERRQRQQRIEALHDTTRELMHVESREAAAELVVETARDLLGLPLSAVFLADESADALRPTAVTDQAQAIIDDHPTFSEGDSLVWEVFDSGEQRVFNDVSTHPNRYNPDTDVCSELLIPLGDHGVLIAASTDAAAFEDASVSLMRTLAANTEEALSRLDRQQELRTLTER
- soluble on expression in E. coli: not soluble

Reference: the DeepSol protein solubility set
